± gives the standard error. For part of these data: This sample holds only a part of the variants without activity.
B1: glmS ribozyme (parent)
chain: AUAAAAGCGCCAGAACUACAGAAAUGUAGUUGACGAGGAGGAGGUUUAUCGAAUUUUCGGCGGAUGCCUCCAAA

Experiments:
Conditions in all cases: with glucosamine-6-phosphate
glucosamine-6-phosphate [1] = variants of: B1; experiment: kcat; higher = faster cleavage; RNA array
Method in brief: (§1)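 Ribozyme variants carrying barcodes were transcribed in situ on sequenced MiSeq chips by E. coli RNA polymerase and tracked at 37 °C with a hybridised Cy3 probe. They were exposed to 40 μM to 10 mM glucosamine-6-phosphate in HEPES/KCl/Mg(OAc)2 buffer. kobs came from exponential decay fits of normalised per-tile medians, and kcat and KM from weighted Michaelis–Menten fits.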

glucosamine-6-phosphate [2] = variants of: B1; experiment: KM; higher = weaker cofactor use; RNA array
Method in brief: as §1

glucosamine-6-phosphate [3] = variants of: B1; experiment: self-cleavage kobs at 2500 uM GlcN6P; higher = faster cleavage; RNA array
Method in brief: as §1

glucosamine-6-phosphate [4] = variants of: B1; experiment: self-cleavage kobs at 10000 uM GlcN6P; higher = faster cleavage; RNA array
Method in brief: as §1

glucosamine-6-phosphate [5] = variants of: B1; experiment: self-cleavage kobs at 40 uM GlcN6P; higher = faster cleavage; RNA array
Method in brief: as §1

glucosamine-6-phosphate [6] = variants of: B1; experiment: self-cleavage kobs at 640 uM GlcN6P; higher = faster cleavage; RNA array
Method in brief: as §1

glucosamine-6-phosphate [7] = variants of: B1; experiment: self-cleavage kobs at 160 uM GlcN6P; higher = faster cleavage; RNA array
Method in brief: as §1

Row | Variant | kcat (glucosamine-6-phosphate [1]) | KM (glucosamine-6-phosphate [2]) | self-cleavage kobs at 2500 uM GlcN6P (glucosamine-6-phosphate [3]) | self-cleavage kobs at 10000 uM GlcN6P (glucosamine-6-phosphate [4]) | self-cleavage kobs at 40 uM GlcN6P (glucosamine-6-phosphate [5]) | self-cleavage kobs at 640 uM GlcN6P (glucosamine-6-phosphate [6]) | self-cleavage kobs at 160 uM GlcN6P (glucosamine-6-phosphate [7])
1 | G41A U47C | 7.04e-05 ± 3.2e-07 s⁻¹ | 1800 ± 30 µM | 4.08e-05 ± 1e-05 s⁻¹ | 5.98e-05 ± 8.4e-06 s⁻¹ | – | – | –
2 | G41A U47A | 0.000635 ± 9.4e-05 s⁻¹ | 282 ± 86 µM | 0.000608 ± 0.00018 s⁻¹ | 0.00055 ± 0.0001 s⁻¹ | 7.36e-05 ± 1.6e-05 s⁻¹ | 0.000573 ± 0.00011 s⁻¹ | –
3 | G41C C71U | 0.000207 ± 2.1e-05 s⁻¹ | 2580 ± 590 µM | 0.000119 ± 1.8e-05 s⁻¹ | 0.00016 ± 1.7e-05 s⁻¹ | – | 3.67e-05 ± 8.3e-06 s⁻¹ | –
4 | G44U U45A | 0.000658 ± 0.00016 s⁻¹ | 1820 ± 740 µM | 0.000478 ± 9.7e-05 s⁻¹ | 0.00046 ± 0.00014 s⁻¹ | – | 0.000175 ± 3.5e-05 s⁻¹ | –
5 | G41C U54G | 0.000435 ± 5.6e-05 s⁻¹ | 1610 ± 450 µM | 0.000354 ± 8.9e-05 s⁻¹ | 0.000363 ± 4.8e-05 s⁻¹ | – | 0.000123 ± 2.4e-05 s⁻¹ | –
6 | G41A C70U | 0.0433 ± 0.0066 s⁻¹ | 1100 ± 210 µM | 0.0385 ± 0.013 s⁻¹ | 0.0374 ± 0.0057 s⁻¹ | 0.00159 ± 0.00013 s⁻¹ | 0.0179 ± 0.0025 s⁻¹ | 0.0046 ± 0.0007 s⁻¹
7 | G44C C67U | 0.00192 ± 0.00015 s⁻¹ | 1700 ± 200 µM | 0.00109 ± 0.00024 s⁻¹ | 0.00168 ± 0.0003 s⁻¹ | 5.1e-05 ± 1.3e-05 s⁻¹ | 0.000532 ± 0.00011 s⁻¹ | 0.000153 ± 3.2e-05 s⁻¹
8 | G40U U47G | 0.000765 ± 0.00012 s⁻¹ | 908 ± 250 µM | 0.000699 ± 0.00013 s⁻¹ | 0.000681 ± 0.00011 s⁻¹ | 4.04e-05 ± 1e-05 s⁻¹ | 0.000262 ± 5.2e-05 s⁻¹ | 0.000115 ± 2.6e-05 s⁻¹
9 | A42G A64G | 0.024 ± 0.0071 s⁻¹ | 1370 ± 520 µM | 0.0422 ± 0.015 s⁻¹ | 0.0194 ± 0.0055 s⁻¹ | 0.000694 ± 0.00014 s⁻¹ | 0.00754 ± 0.0017 s⁻¹ | 0.0024 ± 0.00059 s⁻¹
10 | U45C U65A C67G | 0.00116 ± 0.00022 s⁻¹ | 1660 ± 630 µM | – | 0.000996 ± 0.00022 s⁻¹ | 3.4e-05 ± 1.6e-05 s⁻¹ | 0.000279 ± 0.0001 s⁻¹ | –
11 | G40U G66C | 0.000542 ± 7.3e-05 s⁻¹ | 2060 ± 890 µM | – | 0.00046 ± 6.4e-05 s⁻¹ | – | – | –
12 | G43C C68A | 1.06e-05 ± 2.2e-06 s⁻¹ | – | – | – | < 1e-05 s⁻¹ | – | –
13 | G41A C71U | 0.000308 ± 7.8e-05 s⁻¹ | 697 ± 340 µM | 0.000414 ± 5e-05 s⁻¹ | 0.00026 ± 3e-05 s⁻¹ | 3e-05 ± 6.9e-06 s⁻¹ | 0.000132 ± 1.5e-05 s⁻¹ | 5.5e-05 ± 7.2e-06 s⁻¹
14 | G41A C71A | 0.000272 ± 3.8e-05 s⁻¹ | 645 ± 210 µM | 0.000308 ± 5.6e-05 s⁻¹ | 0.000248 ± 2.8e-05 s⁻¹ | 2.7e-05 ± 8.9e-06 s⁻¹ | 0.000125 ± 1.7e-05 s⁻¹ | 5.23e-05 ± 1.1e-05 s⁻¹
15 | A42G A48G | 9.11e-05 ± 9e-06 s⁻¹ | – | – | 3.86e-05 ± 1.7e-05 s⁻¹ | – | – | –
16 | A42G A48U | 0.00077 ± 0.00015 s⁻¹ | 3220 ± 1100 µM | – | 0.000576 ± 0.00013 s⁻¹ | – | 0.000148 ± 4.3e-05 s⁻¹ | –
17 | G44U U56G | 0.00018 ± 3.5e-05 s⁻¹ | 3010 ± 1100 µM | 6.96e-05 ± 1.9e-05 s⁻¹ | 0.00015 ± 3.7e-05 s⁻¹ | – | 3.67e-05 ± 1.1e-05 s⁻¹ | –
18 | A42G U46A | 0.00476 ± 0.00084 s⁻¹ | 1200 ± 320 µM | – | 0.00455 ± 0.00072 s⁻¹ | 0.000149 ± 2.5e-05 s⁻¹ | 0.00178 ± 0.00057 s⁻¹ | 0.000896 ± 0.00031 s⁻¹
19 | G44C | 0.0002 ± 2.4e-05 s⁻¹ | 1980 ± 570 µM | 0.000127 ± 2.9e-06 s⁻¹ | 0.000159 ± 3.5e-06 s⁻¹ | – | 4.33e-05 ± 1.8e-06 s⁻¹ | –
20 | G44A | 0.00053 ± 6.3e-05 s⁻¹ | 1820 ± 420 µM | 0.000389 ± 1e-05 s⁻¹ | 0.000426 ± 8.1e-06 s⁻¹ | – | 0.000135 ± 3e-06 s⁻¹ | 3.7e-05 ± 2.4e-06 s⁻¹
21 | G44U | 0.000429 ± 5.3e-05 s⁻¹ | 2040 ± 470 µM | 0.000282 ± 6.2e-06 s⁻¹ | 0.000335 ± 6.6e-06 s⁻¹ | – | 0.000101 ± 2.1e-06 s⁻¹ | 2.34e-05 ± 1.7e-06 s⁻¹
22 | A42G G51A | < 1e-05 s⁻¹ | – | – | < 1e-05 s⁻¹ | < 1e-05 s⁻¹ | – | –
23 | G41U U56A C70A | 0.0279 ± 0.012 s⁻¹ | – | 0.033 ± 0.0088 s⁻¹ | 0.0192 ± 0.0059 s⁻¹ | – | 0.0096 ± 0.0018 s⁻¹ | 0.00226 ± 0.00043 s⁻¹
24 | G40U U55C | 0.000228 ± 3.6e-06 s⁻¹ | 6810 ± 240 µM | – | 0.000135 ± 1.7e-05 s⁻¹ | – | – | –
25 | A42U A48U A64U C68U | < 1e-05 s⁻¹ | 11.3 ± 3.5 µM | < 1e-05 s⁻¹ | < 1e-05 s⁻¹ | – | – | –
26 | A42G U47C | 0.00858 ± 0.0022 s⁻¹ | 6280 ± 2000 µM | 0.00232 ± 0.00039 s⁻¹ | 0.00583 ± 0.0016 s⁻¹ | 6.46e-05 ± 2.1e-05 s⁻¹ | 0.00074 ± 0.00014 s⁻¹ | 0.000257 ± 7.7e-05 s⁻¹
27 | G41C A52U | 1.27e-05 ± 7.6e-07 s⁻¹ | – | – | – | < 1e-05 s⁻¹ | – | < 1e-05 s⁻¹
28 | G41C A52G | 1.14e-05 ± 2.5e-06 s⁻¹ | – | – | – | – | – | –
29 | G41A | 0.00567 ± 0.0025 s⁻¹ | – | 0.00264 ± 0.00017 s⁻¹ | – | 0.000349 ± 0.00013 s⁻¹ | 0.000923 ± 0.0001 s⁻¹ | 0.00036 ± 6.4e-05 s⁻¹
30 | G41U | 0.00376 ± 0.0013 s⁻¹ | – | 0.00263 ± 0.00015 s⁻¹ | – | 0.000171 ± 1.9e-05 s⁻¹ | 0.00102 ± 9.3e-05 s⁻¹ | 0.000391 ± 6.3e-05 s⁻¹
